Results taken from paper PMC7884259 (Journal of medicinal chemistry, 2020).
Numbering of substitutions follows the chain as printed. Where no end group is shown, it is not given here.

T1: ATAD2B bromodomain (residues 953–1085) (human, UniProt Q9ULI0 953-1085)
T1 sequence (looked up): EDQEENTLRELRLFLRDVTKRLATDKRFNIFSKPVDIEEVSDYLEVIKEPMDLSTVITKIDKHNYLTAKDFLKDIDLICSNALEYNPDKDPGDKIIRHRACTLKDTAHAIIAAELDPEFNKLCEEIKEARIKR

T2: ATAD2B bromodomain N1038A (human, UniProt Q9ULI0 953-1085, N1038A)
T2 sequence (looked up): T1 sequence (looked up) with N86A

B1: H2AK5ac (res 1–12) (peptide)
peptide: SGRGK(Ac)QGGKARA-NH2
B2: H4K5acK8ac (res 1–10) (peptide)
peptide: SGRGK(Ac)GGK(Ac)GL-NH2
B3: H4K5ac (res 1–10) (peptide)
peptide: SGRGK(Ac)GGKGL-NH2
B4: H4K8ac (res 1–10) (peptide)
peptide: SGRGKGGK(Ac)GL-NH2

Assays:
[1] = biological target: T1, ATAD2B bromodomain (residues 953–1085); assay: ITC
[2] = biological target: T2, ATAD2B bromodomain N1038A; assay: ITC

| Binder | Kd [1] [µM] | Kd [2] [µM] |
| --- | --- | --- |
| B1 | 42.5 | – |
| B2 | 28.1 | 623 |
| B3 | 48 | – |
| B4 | 1160 | – |
